A short description of test [1]: Binding affinities of ADIFAB2 compared with ADIFAB. The conditions noted are these: greater than ADIFAB. From the text:
ADIFAB2 also has an altered spectral response, making it especially useful for measurements of FFAu in blood samples (Apple et al, Clinical Proteomics, (2004) 1:41-44, U.S. patent application Ser. No. 10/670,958). The wavelengths at the maximum intensities emitted by these fluorescently-labeled I-FABP's in the absence of FFA is about 420 to 480 nm. The emission wavelengths at the maximum intensities emitted by these fluorescently-labeled I-FABP's with FFA bound are between about 495 to 580 nm. Experiments typically involve measuring the fluorescence response within both emission maxima or at wavelengths for which the effect of interfering molecules such as hemoglobin can be eliminated as described in U.S. application Ser. No. 10/670958 and PCT/US2004/030521 and the calculation of the ratio ‘R’ of the two fluorescence intensities. The baseline value for this ratio, measured in the absence of analyte, is designated R0.

Test [2] can be described thus: Probe fluorescence intensity change with UCB:BSA. Format: binding.

B1: ADIFAB2: acrylodan-derivatized rI-FABP with Ala substituted for Leu at position 72 (rI-FABP-L72A), SEQ ID NO: 4 (protein, listed as Rattus norvegicus)
chain: AFDGTWKVDRNENYEKFMEKMGINVVKRKLGAHDNLKLTITQEGNKFTVKESSNFRNIDVVFELGVDFAYSAADGTELTGTWTMEGNKLVGKFKRVDNGKELIAVREISGNELIQTYTYEGVEAKRIFKKDRGHHHHHH
modifications: acrylodan label; MUTAGEN (72)...(72) rat intestinal fatty acid binding protein with alanine substitution for leucine at position 72
B1: the “binding affinities relative to ADIFAB” value in test [1] is on record as “about 10 fold”. For the same molecule, the “ΔI/Io 1:1 UCB:BSA 440 nm” value in test [2] (1:1 UCB:BSA, 440 nm) is on record as −0.40. Besides, the “ΔI/Io 1:1 UCB:BSA 500 nm” value in test [2] (1:1 UCB:BSA, 500 nm) is recorded as −0.34. The “ΔI/Io 1:2 UCB:BSA 440 nm” value in test [2] (1:2 UCB:BSA, 440 nm) was −0.19. Also, the “ΔI/Io 1:2 UCB:BSA 500 nm” value in test [2] (1:2 UCB:BSA, 500 nm) is on record as −0.16.

Source of the values: US20060257938A1, “Method of screening for drugs that block ligand binding to a lipid binding protein” (priority 2005, published 2006).
